Measured values taken from patent US20120178124A1, “STEROL SIDE CHAIN-CLEAVING ENZYME PROTEIN AND USE THEREOF” (MITSUBISHI CHEMICAL CORPORATION, priority 2009, published 2012).
Several values for one entry are separate records, joined by “and”; a condition that tells them apart may be missing. Equal values may be shown once.

B1: CYP204A1: P450scc from Novosphingobium aromaticivorans ATCC 700278, amino acid sequence SEQ ID NO: 23 (protein)
chain: MARAATAAGNGLPLLDGGVPLLGHLAQFFRDPVSVLKRGYRSKGRLFAMNFMGQRMNVMLGPEHNRFFFEETDKLLSIRESMPFFLKMFSPEFYSFAEMDEYLRQRSIIMPRFKAASMKQYVPVMVEESLNLVERLGEEGEFDLIPTLGPVVMDIAAHSFMGREFHEKLGHEFFELFRDFSGGMEFVLPLWLPTPKMVKSQRAKRKLHAILQSWIDKRRAAPLDPPDFFQTMIETKYPDGRPVPDEIIRHLILLLVWAGHETTAGQVSWALADLLQNPDYQKVLRGEISSLLGGSDGRDLGWEQAVAMEKMDLALRETERLHPVAYMLSRKARADIERDGYVIRKGEFVLLAPSVSHRMEETFRNPDAYDPERFNPANPDAQIESNSLIGFGGGVHRCAGVNFARMEMKVLVAILLQNFDMELMDEVRPIAGASTYWPAQPCRVRYRRRKLDGSEAGADMAALARAAGCPAHT
modifications: Novosphingobium aromaticivorans
B2: Sphingomonas subterranea NBRC16086 P450scc CYPSS204A (CYPSS), wild type, SEQ ID NO: 2 (Novosphingobium subterraneum) (protein)
chain: MASAAAGADGLPLLDGGVPLLGHLAQFFRDPVSVLKRGYRSKGRLFAMNFMGQRMNVMLGPEHNRFFFEETDKLLSIRESMPFFLKMFSPEFYSFAEMDEYLRQRAIIMPRFKAASMKQYVPVMVEESLNLVERLGEEGEFDLIPTLGPVVMDIAAHSFMGREFHEKLGHEFFELFRDFSGGMEFVLPLWLPTPKMVKSQRAKKKLHAILQSWIDKRRASPLDPPDFFQTMIETKYPDGRAVPDEIIRHLILLLVWAGHETTAGQVSWALADLLQNPGYQQVLREEVASLLGGSDGRALGWEQAVAMEKMDLALRETERLHPVAYMLSRKASADIERDGYRIRKGEFVLLAPSVSHRMEETFRNADAYDPERFNPQNPDAQIESNSLIGFGGGVHRCAGVNFARMEMKVLVAILLQNFDMELIDEVRPIAGASTYWPAQPCRVRYKRRKLDGAGGSADVAALAKAAGCPAHA

Columns and labels:
Assay type in all cases: biochemical
[1] = Kinetics analysis of CYP204A1 and CYPSS; settings: for Specific activity: pH 7.5, 15° C., 60 minutes; for Km / Vmax: Lineweaver-Burk plot
Protocol: Moreover, the activity decrease rate when the substrate concentration is increased from 10 μM to 100 μM can also be obtained by conducting the conversion of 4-cholesten-3-one at a substrate concentration of 0.1 to 500 μM and then examining the relationship between the substrate concentration and the activity of the enzyme protein. Specifically, there is prepared 1 ml of a reaction solution, which comprises […] CYP204A1 or […] CYPSS204A, 96 μg/ml spinach-derived ferredoxin, 0.1 U/ml spinach-derived ferredoxin reductase protein, 3 U/ml glucose dehydrogenase, 60 mM glucose, 2 mM NADH and 2 mM NADPH. Tris-HCl is then added to the reaction mixture to adjust to pH 7.5. 20 μl of 4-cholesten-3-one used as a substrate, dissolved in DMSO to have a final concentration of 0.1, 0.5, 1, 2, 5, 10, 20, 50, 100 or 500 μM, is added to the reaction mixture. The reaction is initiated by addition of NADH and NADPH, and it can be carried out at 200 rpm at 15° C. for 60 minutes.
(§1) To 20 ml of the cell suspension prepared in (2) above, 680 μl of X10 Bug Buster (Novagen), 20 μl of Benzonase (Novagen), and 2 ml of 40 mg/ml lysozyme were added, and the obtained mixture was then shaken at 30° C. for 30 minutes to disintegrate the cells. Thereafter, the reaction solution was centrifuged to obtain the cell-free extract. The obtained, approximately 20 ml of cell-free extract was dialyzed against 1 L of Buffer R (20 mM KPB pH 7.4, 20% glycerol) two times, and the deposited precipitate was then removed by centrifugation. The cell-free extract obtained as a supernatant herein was used in the subsequent experiments.
Using the cell-free extract prepared in (3) above, conversion of 4-cholesten-3-one was carried out at substrate concentration of 0.1 to 500 μM, and the relationship between the substrate concentration and the enzyme protein activity was examined. The reaction solution was prepared, such that 1 ml of the buffer comprised 220 pmol CYP204A1 or 250 pmol CYPSS, 96 μg/ml spinach-derived ferredoxin, 0.1 U/ml spinach-derived ferredoxin reductase protein, 3 U/ml glucose dehydrogenase, 60 mM glucose, 2 mM NADH, and 2 mM NADPH. Tris-HCl was added to the reaction solution so as to adjust it to pH 7.5. 20 μl of 4-cholesten-3-one, which had been dissolved in DMSO to a final concentration of 0.1, 0.5, 1, 2, 5, 10, 20, 50, 100 or 500 μM, was added. The reaction was initiated by addition of NADH and NADPH, and it was carried out at 200 rpm at 15° C. for 60 minutes. Thereafter, 1.5 ml of ethyl acetate was added to the reaction solution to terminate the reaction, and extraction was carried out. Then, extraction was carried out again with 0.75 ml of ethyl acetate. The obtained ethyl acetate phase was solidified using evaporator, and the residue was then dissolved in 200 μl of methanol. Thereafter, progesterone was detected by HPLC analysis. The relationship between the substrate concentration and the enzyme protein activity, and kinetics parameters calculated by production of Lineweaver-Burk plot, is shown in Table 5.

[2] = Analysis of the optimum temperature, conversion of 4-cholesten-3-one by cell-free extract; settings: for Specific activity: Tris-HCl pH 7.5, 4 hours, 4-cholesten-3-one to progesterone
Protocol: as §1
Using the cell-free extract prepared in (3) above, conversion of 4-cholesten-3-one was carried out at […]. The reaction solution was prepared, such that 1 ml of the buffer comprised 215 pmol/ml CYP204A1 or 391 pmol/ml CYPSS, 64 μg/ml spinach-derived ferredoxin, 0.1 U/ml spinach-derived ferredoxin reductase protein, 3 U/ml glucose dehydrogenase, 60 mM glucose, 50 μg/ml 4-cholesten-3-one, 2 mM NADH, and 2 mM NADPH. Tris-HCl was added to the reaction solution so as to adjust it to pH 7.5. The reaction was initiated by addition of NADH and NADPH, and it was carried out at 200 rpm for 4 hours, under temperature conditions of 10° C., 15° C., 20° C., 25° C., or 30° C. Thereafter, 1.5 ml of ethyl acetate was added to the reaction solution to terminate the reaction, and extraction was carried out. Then, extraction was carried out again with 0.75 ml of ethyl acetate. The obtained ethyl acetate phase was solidified using evaporator, and the residue was then dissolved in 200 μl of methanol. Thereafter, progesterone was detected by HPLC analysis. The enzyme protein activity for conversion of 4-cholesten-3-one to progesterone under various temperature conditions is shown in Table 1.

[3] = Kinetics analysis of CYP204A1 and CYPSS; settings: 4-cholesten-3-one 100 μg/ml (so in the source)
[4] = 4-cholesten-3-one concn. 0.1 μM
[5] = 4-cholesten-3-one concn. 0.5 μM
[6] = 4-cholesten-3-one concn. 10 μM (reference)
[7] = 4-cholesten-3-one concn. 100 μM
[8] = 4-cholesten-3-one concn. 500 μM

| enzyme protein activity in comparison with that at 10 μM 4-cholesten-3-one [3] [%] | Molecule | Specific activity ([2]; 10° C.) [g/h/mol] | Specific activity ([2]; 15° C.) [g/h/mol] | Specific activity ([2]; 20° C.) [g/h/mol] | Specific activity ([2]; 25° C.) [g/h/mol] | Specific activity ([2]; 30° C.) [g/h/mol] | Specific activity [1, 4] [mmol/min/mol] | Specific activity [1, 5] [mmol/min/mol] | Specific activity ([1]; 4-cholesten-3-one concn. 1 μM) [mmol/min/mol] | Specific activity ([1]; 4-cholesten-3-one concn. 2 μM) [mmol/min/mol] | Specific activity ([1]; 4-cholesten-3-one concn. 5 μM) [mmol/min/mol] | Specific activity relative to that at 10 μM [1, 6] | Specific activity ([1]; 4-cholesten-3-one concn. 10 μM) [mmol/min/mol] | Specific activity ([1]; 4-cholesten-3-one concn. 20 μM) [mmol/min/mol] | Specific activity ([1]; 4-cholesten-3-one concn. 50 μM) [mmol/min/mol] | Specific activity relative to that at 10 μM [1, 7] | Specific activity [1, 7] [mmol/min/mol] | Specific activity [1, 8] [mmol/min/mol] | Km ([1]; 4-cholesten-3-one) | Vmax ([1]; 4-cholesten-3-one) [mmol/min/mol] | also measured |
| --- | --- | --- | --- | --- | --- | --- | --- | --- | --- | --- | --- | --- | --- | --- | --- | --- | --- | --- | --- | --- | --- |
|  | CC(C)CCC[C@@H](C)[C@H]1CC[C@H]2[C@@H]3CCC4=CC(=O)CC[C@]4(C)[C@H]3CC[C@]12C [4-cholesten-3-one] |  |  |  |  |  |  |  |  |  |  |  |  |  |  |  |  |  |  |  | substrate inhibition ([1]; 4-cholesten-3-one 0.1 to 500 μM): causes substrate inhibition |
| 67 | B1 | 507 | 698 | 719 | 550 | 285 | 2.2 | 15.3 | 25.2 | 32.2 | 36.1 | 100 | 43.1 | 42.7 | 33.5 | 66.6 | 28.7 | 20.1 | 1 µM and ~1 µM | 47.4 |  |
| 90 | B2 | 918 | 1279 | 1133 | 936 | 465 | 1.9 | 20.0 | 36.5 | 49.5 | 70.4 | 100 | 67.2 | 72.4 | 71.2 | 90.0 | 60.5 | 33.6 | 1.1 µM and ~1 µM | 78.7 | optimum temperature for action (temperature of highest activity) ([2]; conversion of 4-cholesten-3-one to progesterone, pH 7.5): 15 °C; Vmax value compared with that of CYP204A1 ([1]; 4-cholesten-3-one): approximately 1.7 times |
